In US7253271 (REGENTS OF THE UNIVERSITY OF MICHIGAN, dated 2007):

Key:
[1] = target: T1, human ClC-Ka chloride channel (human, UniProt P51800 1-687); experiment: inferred from co-expression (currents, surface expression, colocalisation); no direct binding assay
T1 construct: whole, on cells; Expressed from cRNA in Xenopus oocytes or from cDNA in tsA201 cells; also called CIC-Ka; CLCNKA
T1 sequence (looked up): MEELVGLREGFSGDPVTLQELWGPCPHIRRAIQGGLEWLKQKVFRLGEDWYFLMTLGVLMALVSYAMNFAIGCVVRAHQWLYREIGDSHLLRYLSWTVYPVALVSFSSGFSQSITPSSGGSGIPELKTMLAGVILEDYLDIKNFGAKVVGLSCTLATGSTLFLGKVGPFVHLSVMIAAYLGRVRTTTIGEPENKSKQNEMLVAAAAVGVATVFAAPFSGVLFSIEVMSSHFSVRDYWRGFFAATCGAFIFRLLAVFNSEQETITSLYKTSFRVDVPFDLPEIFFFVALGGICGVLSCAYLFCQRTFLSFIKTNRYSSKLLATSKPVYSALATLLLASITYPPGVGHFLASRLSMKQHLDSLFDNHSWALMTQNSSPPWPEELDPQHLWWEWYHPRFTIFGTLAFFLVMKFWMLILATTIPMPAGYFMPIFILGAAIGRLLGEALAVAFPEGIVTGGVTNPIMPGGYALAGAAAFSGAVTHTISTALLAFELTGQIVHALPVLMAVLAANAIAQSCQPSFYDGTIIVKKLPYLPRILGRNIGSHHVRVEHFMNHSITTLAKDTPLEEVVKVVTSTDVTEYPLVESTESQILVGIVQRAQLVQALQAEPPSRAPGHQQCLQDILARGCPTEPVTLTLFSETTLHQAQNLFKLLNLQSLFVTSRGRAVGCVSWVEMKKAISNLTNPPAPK

[2] = target: T2, human ClC-Kb chloride channel (human, UniProt P51801 1-687); experiment: inferred from co-expression (currents, colocalisation); no direct binding assay
T2 construct: whole, on cells; Expressed from cRNA in Xenopus oocytes or from cDNA in tsA201 cells; also called CIC-Kb; CLCNKB
T2 sequence (looked up): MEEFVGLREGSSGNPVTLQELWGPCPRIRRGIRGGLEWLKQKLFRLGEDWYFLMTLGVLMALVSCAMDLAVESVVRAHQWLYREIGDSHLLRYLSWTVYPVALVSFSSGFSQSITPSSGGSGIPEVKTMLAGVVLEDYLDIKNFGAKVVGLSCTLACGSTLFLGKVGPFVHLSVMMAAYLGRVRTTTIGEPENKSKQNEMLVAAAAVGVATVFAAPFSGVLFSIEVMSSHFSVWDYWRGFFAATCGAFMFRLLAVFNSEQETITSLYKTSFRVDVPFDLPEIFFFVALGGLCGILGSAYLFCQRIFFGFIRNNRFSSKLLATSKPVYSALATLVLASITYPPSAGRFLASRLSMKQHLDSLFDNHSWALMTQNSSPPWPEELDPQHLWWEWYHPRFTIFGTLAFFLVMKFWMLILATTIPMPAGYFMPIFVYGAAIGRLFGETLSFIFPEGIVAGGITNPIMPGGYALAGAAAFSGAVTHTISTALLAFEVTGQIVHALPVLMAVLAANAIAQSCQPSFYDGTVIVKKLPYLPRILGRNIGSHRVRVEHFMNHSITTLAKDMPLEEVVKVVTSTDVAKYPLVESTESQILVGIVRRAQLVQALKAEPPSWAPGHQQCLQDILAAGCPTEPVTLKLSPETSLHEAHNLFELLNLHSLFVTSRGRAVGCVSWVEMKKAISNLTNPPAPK

binding result [1]: binds | binding result [2]: binds
B1: barttin (BSND protein), wild type, human (other)
chain: MADEKTFRIGFIVLGLFLLALGTFLMSHDRPQVYGTFYAMGSVMVIGGIIWSMCQCYPKITFVPADSDFQGILSPKAMGLLENGLAAEMKSPSPQPPYVRLWEEAAYDQSLPDFSHIQMKVMSYSEDHRSLLAPEMGQPKLGTSDGGEGGPGDVQAWMEAAVVIHKGSDESEGERRLTQSWPGPLACPQGPAPLASFQDDLDMDSSEGSSPNASPHDREEACSPQQEPQGCRCPLDRFQDFALIDAPTLEDEPQEGQQWEIALPNNWQRYPRTKVEEKEASDTGGEEPEKEEEDLYYGLPDGAGDLLPDKELGFEPDTQG
notes: Expressed in Xenopus oocytes, tsA201 cells or other transfected cells
